Molecular target: GP55 (ORF55-encoded replicase of lactococcal phage 1706), full length (lactococcal phage 1706)
Assay: SEC-MALS; Superdex 200 Increase 10/300 GL, 20 mM Tris-HCl pH 8.0, 100 mM NaCl, 1 mM TCEP, 0.5 ml/min; Wyatt Dawn Heleos II; self-association of the Ni-NTA-purified protein

Substance: GP55 (ORF55-encoded replicase of lactococcal phage 1706), full length (enzyme)
- stoichiometry N: 2

— article PMC12205980
